# Data reported in paper PMC4321490, “Structural analysis of DNA binding by C.Csp231I, a member of a novel class of R-M controller proteins regulating gene expression”.
# T1: C.Csp231I (Citrobacter sp. RFL231, UniProt Q32WH4 1-98)
# T1 sequence: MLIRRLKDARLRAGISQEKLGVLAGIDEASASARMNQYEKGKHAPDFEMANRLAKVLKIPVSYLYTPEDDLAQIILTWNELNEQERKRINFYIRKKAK
# T2: C.Csp231I (two dimers) (Citrobacter sp. RFL231, UniProt Q32WH4 1-98)
# T2 sequence: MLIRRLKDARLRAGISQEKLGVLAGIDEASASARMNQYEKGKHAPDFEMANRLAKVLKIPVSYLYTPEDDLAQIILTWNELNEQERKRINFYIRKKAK
# B1: 54-1 (native OL+OR) (dsDNA)
# DNA 1: ACACTAAGGAAAACTTAGTAAAATTGCTTTTTTAAACTAAGAAAATCTTAGCAA
# DNA 2: TTGCTAAGATTTTCTTAGTTTAAAAAAGCAATTTTACTAAGTTTTCCTTAGTGT
# B2: 54-3 (spacer randomized) (dsDNA)
# DNA 1: ACACTAAGGAAAACTTAGTAACTGCATGCTACCAAACTAAGAAAATCTTAGCAA
# DNA 2: TTGCTAAGATTTTCTTAGTTTGGTAGCATGCAGTTACTAAGTTTTCCTTAGTGT
# B3: 48-1 (6 bp spacer deletion) (dsDNA)
# DNA 1: ACACTAAGGAAAACTTAGTAAAATTTTAAACTAAGAAAATCTTAGCAA
# DNA 2: TTGCTAAGATTTTCTTAGTTTAAAATTTTACTAAGTTTTCCTTAGTGT
# B4: OL 21-mer (dsDNA)
# DNA 1: ACACTAAGGAAAACTTAGTAA
# DNA 2: TTACTAAGTTTTCCTTAGTGT
# B5: 54-2 (OR randomized) (dsDNA)
# DNA 1: ACACTAAGGAAAACTTAGTAAAATTGCTTTTTTAAATAAGACTCGTTAAAAAAC
# DNA 2: GTTTTTTAACGAGTCTTATTTAAAAAAGCAATTTTACTAAGTTTTCCTTAGTGT
# Experiments:
# [1] = target: C.Csp231I controller protein (Citrobacter sp. RFL231); experiment: crystal structure; C.Csp231I in complex with 21 bp OL or OR operator DNA duplexes; three crystal forms (P6(1) OL 2.30 Å, C2 OL 2.75 Å, P6(1) OR 1.80 Å); subunits within one protein dimer
# [2] = target: T1, C.Csp231I; experiment: EMSA; single complex up to 2:1 subunits per duplex; 2 uM DNA; EMSA: 10 mM Tris-HCl pH 8.0, 0.1 M NaCl, 1 mM EDTA, room temperature 30 min, 2 uM DNA, 6.5% native PAGE in 0.25x TBE; AUC: same buffer, 20 C; conditions: protein: recombinant; chain copies: 2
# [3] = target: T2, C.Csp231I (two dimers); experiment: EMSA; larger complex at 4:1 and above; 2 uM DNA; EMSA: 10 mM Tris-HCl pH 8.0, 0.1 M NaCl, 1 mM EDTA, room temperature 30 min, 2 uM DNA, 6.5% native PAGE in 0.25x TBE; AUC: same buffer, 20 C; conditions: protein: recombinant; chain copies: 4
# [4] = target: T2, C.Csp231I (two dimers); experiment: EMSA; little effect of spacer mutation; 2 uM DNA; EMSA: 10 mM Tris-HCl pH 8.0, 0.1 M NaCl, 1 mM EDTA, room temperature 30 min, 2 uM DNA, 6.5% native PAGE in 0.25x TBE; AUC: same buffer, 20 C; conditions: protein: recombinant; chain copies: 4
# [5] = target: T1, C.Csp231I; experiment: EMSA; one dimer binds; 2 uM DNA; EMSA: 10 mM Tris-HCl pH 8.0, 0.1 M NaCl, 1 mM EDTA, room temperature 30 min, 2 uM DNA, 6.5% native PAGE in 0.25x TBE; AUC: same buffer, 20 C; conditions: protein: recombinant; chain copies: 2
# [6] = target: T1, C.Csp231I; experiment: crystal structure; C2 form, 2.75 A, two complexes per asymmetric unit; EMSA: 10 mM Tris-HCl pH 8.0, 0.1 M NaCl, 1 mM EDTA, room temperature 30 min, 2 uM DNA, 6.5% native PAGE in 0.25x TBE; AUC: same buffer, 20 C; conditions: protein: recombinant; chain copies: 2
# [7] = target: T1, C.Csp231I; experiment: EMSA; single dimer at the OL site; 2 uM DNA; EMSA: 10 mM Tris-HCl pH 8.0, 0.1 M NaCl, 1 mM EDTA, room temperature 30 min, 2 uM DNA, 6.5% native PAGE in 0.25x TBE; AUC: same buffer, 20 C; conditions: protein: recombinant; chain copies: 2
molecule,measurement,setting,value
C.Csp231I controller protein (natural protein),stoichiometry N,[1],2
B1,binding result,[2],binds
same,binding result,[3],binds
B2,binding result,[4],binds
B3,binding result,[5],binds
B4,binding result,[6],binds
B5,binding result,[7],binds
